Paper PMC12697864, “cGAS Inhibits ALDH2 to Suppress Lipid Droplet Function and Regulate MASLD Progression” (Advanced Science, 2025)

Target: the molecule itself
Assay: mass photometry; TWOMP (Refeyn), room temperature, 1X PBS with 1 mM β-mercaptoethanol, proteins at 10 nM-400 nM; hALDH2 with NAD+, with or without mcGAS; tetramer formation

B1: His-ALDH2, purified full-length human ALDH2 (enzyme, UniProt P05091 18-517, looked up)
chain: SAAATQAVPAPNQQPEVFCNQIFINNEWHDAVSRKTFPTVNPSTGEVICQVAEGDKEDVDKAVKAARAAFQLGSPWRRMDASHRGRLLNRLADLIERDRTYLAALETLDNGKPYVISYLVDLDMVLKCLRYYAGWADKYHGKTIPIDGDFFSYTRHEPVGVCGQIIPWNFPLLMQAWKLGPALATGNVVVMKVAEQTPLTALYVANLIKEAGFPPGVVNIVPGFGPTAGAAIASHEDVDKVAFTGSTEIGRVIQVAAGSSNLKRVTLELGGKSPNIIMSDADMDWAVEQAHFALFFNQGQCCCAGSRTFVQEDIYDEFVERSVARAKSRVVGNPFDSKTEQGPQVDETQFKKILGYINTGKQEGAKLLCGGGIAADRGYFIQPTVFGDVQDGMTIAKEEIFGPVMQILKFKTIEEVVGRANNSTYGLAAAVFTKDLDKANYLSQALQAGTVWVNCYDVFGAQSPFGGYKMSGSGRELGEYGLQAYTEVKTVTVKVPQKNS
notes: aldehyde dehydrogenase 2 (ALDH2), human, full-length gene, codon-optimised, in pET28a; Two preparations: likely apo hALDH2, and tetrameric hALDH2 isolated by SEC after incubation with 1 mM NAD+; Tetramer forms with NAD+ (mass photometry); also called hALDH2; bacterially purified ALDH2 proteins; source: E. coli Rosetta (DE3), purified (Ni Sepharose, Q column, SEC); not shown: His6, N-terminal, kept
- stoichiometry N: 4
